Here are results for four molecules from US20200392225A1.

Positions count from the first letter of the chain named.

Assay [1] has as its target human NPR1 W74R mutant in the presence of ANP (human) (UniProt P01160). Nature of the assay: ELISA, IgG titration, +100 nM ANP.
In assay [2] the target is human NPR1 expressed on CHO-K1 cells in the presence of ANP (human) (UniProt P01160). Briefly: flow cytometry, 2 uM IgG, +100 nM ANP.
Assay [3] addresses T1, human NPR3 (counter target) (human) (UniProt P17342).
T1 sequence (looked up): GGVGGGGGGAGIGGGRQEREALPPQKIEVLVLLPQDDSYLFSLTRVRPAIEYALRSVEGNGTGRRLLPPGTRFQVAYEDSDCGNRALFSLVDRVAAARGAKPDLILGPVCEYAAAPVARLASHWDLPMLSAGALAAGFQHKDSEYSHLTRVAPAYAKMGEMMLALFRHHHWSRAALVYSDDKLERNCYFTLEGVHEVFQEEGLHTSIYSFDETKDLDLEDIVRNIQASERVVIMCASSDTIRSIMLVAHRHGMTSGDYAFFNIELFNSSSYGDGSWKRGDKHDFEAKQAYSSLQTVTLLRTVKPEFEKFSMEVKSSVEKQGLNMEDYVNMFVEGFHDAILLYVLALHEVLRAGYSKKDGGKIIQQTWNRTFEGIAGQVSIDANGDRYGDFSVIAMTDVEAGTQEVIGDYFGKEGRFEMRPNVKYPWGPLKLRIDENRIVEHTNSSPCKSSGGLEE
Briefly: ELISA, 1 uM IgG.

In assay [4] the target is human NPR1 W74R mutant in the presence of ANP (human) (UniProt P01160). Briefly: ELISA, 1 uM IgG, +100 nM ANP. (ELISA stands for enzyme-linked immunosorbent assay.)
For assay [5], the target named is T2, human NPR3 in the presence of ANP (human) (UniProt P17342).
T2 sequence (looked up): T1 sequence (looked up)
T2 sequence (peptide, looked up): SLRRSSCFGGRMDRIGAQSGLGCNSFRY
Nature of the assay: ELISA, 1 uM IgG, +100 nM ANP.

In assay [6] the target is T3, rat NPR1, recombinant antigen (rat) (UniProt P18910).
T3 sequence: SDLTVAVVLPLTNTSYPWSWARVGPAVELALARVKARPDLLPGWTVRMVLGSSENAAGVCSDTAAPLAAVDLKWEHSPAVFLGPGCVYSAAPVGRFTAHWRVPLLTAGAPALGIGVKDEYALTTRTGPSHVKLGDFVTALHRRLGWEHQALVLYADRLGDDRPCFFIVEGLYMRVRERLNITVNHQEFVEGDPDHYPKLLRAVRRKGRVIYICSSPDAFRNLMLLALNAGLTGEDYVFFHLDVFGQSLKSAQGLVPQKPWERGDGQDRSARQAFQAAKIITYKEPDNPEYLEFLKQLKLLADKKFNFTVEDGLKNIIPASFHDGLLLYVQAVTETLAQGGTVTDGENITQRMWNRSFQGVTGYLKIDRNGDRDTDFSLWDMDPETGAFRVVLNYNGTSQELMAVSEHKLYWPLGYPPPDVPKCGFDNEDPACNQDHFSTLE
Nature of the assay: ELISA, 1 uM IgG.

The target in assay [7] is human NPR1 W74R mutant in the presence of ANP (human) (UniProt P01160). Nature of the assay: ELISA, IgG titrated on the antigen with 250 fold molar excess of ANP [cont.].

B1: WW06 IgG (WW06_LALA) (antibody, V domains shown)
VH: QVQLVQSGAEVKKPGESLKISCKGSGYSFTSYWIAWVRQMPGKGLEWMGRIDPDNSYTRYSPSFQGQVTISADKSISTAYLQWSSLKASDTAMYYCARWLSPGYALGEQPAGMDHWGQGTLVTVSS
VL: DIVLTQPPSVSGAPGQRVTISCTGSSSNIGAGYAVHWYQQLPGTAPKLLIYSNNKRPSGVPDRFSGSKSGTSASLAITGLQAEDEADYYCQSYDLQKSSRVFGGGTKLTVLG
By EC50 is commonly meant the concentration giving half of the maximal effect. As to B1, the EC50 in assay [1] is 0.8 nM. The flow cytometry S/BG in assay [2] is 1.1 S/BG.

B2: YY05 IgG (YY05_LALA) (antibody, V domains shown)
VH: EVQLVQSGAEVKKPGESLKISCKGSGYSFTSYWISWVRQMPGKGLEWMGIIYPGTSYTRYSPSFQGQVTISADKSISTAYLQWSSLKASDTAMYYCARGAVAGQLGFDHWGQGTLVTVSS
VL: QSVLTQPPSVSGAPGQRVTISCTGSSSNIGAGYDVHWYQQLPGTAPKLLIYGNSNRPSGVPDRFSGSKSGTSASLAITGLQAEDEADYYCQSYYTSSHGPVFGGGTKLTVLG
With B2, the ELISA IgG binding at 1 uM IgG (unit not given) in assay [3] is 7; in assay [4] it was 23; in assay [5], 4.

B3: YY07 IgG (YY07_LALA) (antibody, V domains shown)
VH: B2 VH with A100S, V101L, A102P, Q104L
VL: B2 VL with S58N, Y94D, T95S, S96P, S97T, H98S, G99S, P100S
As for B3, the ELISA IgG binding at 1 uM IgG (unit not given) amounted to 20 in assay [4] and 5 in assay [5].

B4: YY06 IgG (YY06_LALA) (antibody, V domains shown)
VH: EVQLLESGGGLVQPGGSLRLSCAASGFTFSSYAISWVRQAPGKGLEWVSAISGSGGSTYYAESVKGRFTISRDNSKNTLYLQMNSLRAEDTAVYYCARPYLGDRRSYGFDHWGQGTLVTVSS
VL: QSALTQPASVSGSPGQSITISCTGTSSDVGSYNLVSWYQQHPGKAPKLMIYEGSKRPSGVSNRFSGSKSGNTASLTISGLQAEDEADYYCSSYGFHIVVVVFGGGTKLTVLG
The EC50 (read off the curve) is the concentration needed to bring the measured effect to its halfway point. Take B4: the ELISA IgG binding at 1 uM IgG (unit not given) in assay [3] worked out at 6; in assay [6], 3; in assay [4], 86; in assay [5], 6. Besides, the half-maximal effective concentration (EC50 (read off the curve)) in assay [7] was determined as 20 nM.
